Test results as given in the supplement of paper PMC5998384.

How the values were obtained:
[1] = tested on: HeLa Kyoto; assay: solubility in G1/S (NP-40 vs SDS abundance) (log2 ratio); higher = more soluble; conditions: cell cycle stage: G1/S
[2] = tested on: HeLa Kyoto; assay: thermal stability score vs G1/S (z-score of summed log2 fold changes over temperatures); higher = more thermally stable than in G1/S
[3] = tested on: HeLa Kyoto; assay: melting temperature (median over replicates), in situ; higher = more thermally stable
[4] = tested on: HeLa Kyoto; assay: solubility change mitosis vs G1/S (difference of NP-40 vs SDS log2 ratios) (log2 ratio difference); higher = more soluble in mitosis
[5] = cell cycle stage: early G1 (4.5 h after nocodazole release)
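For melting temperature (median over replicates), in situ in this document: HeLa Kyoto cells synchronized by double thymidine or nocodazole block, proteins quantified by TMT10plex mass spectrometry, three independent biological replicates.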
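For solubility change mitosis vs G1/S (difference of NP-40 vs SDS log2 ratios) in this document: synchronized HeLa Kyoto cells (double thymidine block for G1/S, nocodazole release for mitosis), protein amounts in NP-40 versus SDS lysates quantified by mass spectrometry, three biological replicates.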
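For solubility in G1/S (NP-40 vs SDS abundance) in this document: HeLa Kyoto cells arrested at G1/S by double thymidine block, proteins quantified by TMT10plex mass spectrometry in mild NP-40 versus SDS extracts, three biological replicates.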
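For thermal stability score vs G1/S (z-score of summed log2 fold changes over temperatures) in this document: synchronized HeLa Kyoto cells, proteins quantified by TMT10plex mass spectrometry, three biological replicates, mitosis taken 0.5 h after nocodazole release, G1/S directly after double thymidine block.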

| Sequence | solubility in G1/S (log2) [1] | thermal stability score [2, 5] | thermal stability score ([2]; cell cycle stage: mitosis) | melting temperature ([3]; cell cycle stage: G1/S) [°C] | melting temperature ([3]; cell cycle stage: mitosis) [°C] | solubility change mitosis (log2) [4] |
| --- | --- | --- | --- | --- | --- | --- |
| MPKPINVRVTTMDAELEFAIQPNTTGKQLFDQVVKTVGLREVWFFGLQYVDSKGYSTWLKLNKKVTQQDVKKENPLQFKFRAKFFPEDVSEELIQEITQRLFFLQVKEAILNDEIYCPPETAVLLASYAVQAKYGDYNKEIHKPGYLANDRLLPQRVLEQHKLTKEQWEERIQNWHEEHRGMLREDSMMEYLKIAQDLEMYGVNYFEIKNKKGTELWLGVDALGLNIYEHDDKLTPKIGFPWSEIRNISFNDKKFVIKPIDKKAPDFVFYAPRLRINKRILALCMGNHELYMRRRKPDTIEVQQMKAQAREEKHQKQLERAQLENEKKKREIAEKEKERIEREKEELMERLKQIEEQTIKAQKELEEQTRKALELDQERKRAKEEAERLEKERRAAEEAKSAIAKQAADQMKNQEQLAAELAEFTAKIALLEEAKKKKEEEATEWQHKAFAAQEDLEKTKEELKTVMSAPPPPPPPPVIPPTENEHDEHDENNAEASAELSNEGVMNHRSEEERVTETQKNERVKKQLQALSSELAQARDETKKTQNDVLHAENVKAGRDKYKTLRQIRQGNTKQRIDEFEAM [RDX] | 0.0601 | 0.702 | 0.805 | 57.1 | 56.4 | 0.0339 |
| MAATAREDGASGQERGQRGCEHYDRGCLLKAPCCDKLYTCRLCHDNNEDHQLDRFKVKEVQCINCEKIQHAQQTCEECSTLFGEYYCDICHLFDKDKKQYHCENCGICRIGPKEDFFHCLKCNLCLAMNLQGRHKCIENVSRQNCPICLEDIHTSRVVAHVLPCGHLLHRTCYEEMLKEGYRCPLCMHSALDMTRYWRQLDDEVAQTPMPSEYQNMTVDILCNDCNGRSTVQFHILGMKCKICESYNTAQAGGRRISLDQQ [RCHY1] | 0.146 | -0.0247 | 0.646 | 51.2 | 52.3 | -0.374 |
| MANVSKKVSWSGRDRDDEEAAPLLRRTARPGGGTPLLNGAGPGAARQSPRSALFRVGHMSSVELDDELLDPDMDPPHPFPKEIPHNEKLLSLKYESLDYDNSENQLFLEEERRINHTAFRTVEIKRWVICALIGILTGLVACFIDIVVENLAGLKYRVIKGNIDKFTEKGGLSFSLLLWATLNAAFVLVGSVIVAFIEPVAAGSGIPQIKCFLNGVKIPHVVRLKTLVIKVSGVILSVVGGLAVGKEGPMIHSGSVIAAGISQGRSTSLKRDFKIFEYFRRDTEKRDFVSAGAAAGVSAAFGAPVGGVLFSLEEGASFWNQFLTWRIFFASMISTFTLNFVLSIYHGNMWDLSSPGLINFGRFDSEKMAYTIHEIPVFIAMGVVGGVLGAVFNALNYWLTMFRIRYIHRPCLQVIEAVLVAAVTATVAFVLIYSSRDCQPLQGGSMSYPLQLFCADGEYNSMAAAFFNTPEKSVVSLFHDPPGSYNPLTLGLFTLVYFFLACWTYGLTVSAGVFIPSLLIGAAWGRLFGISLSYLTGAAIWADPGKYALMGAAAQLGGIVRMTLSLTVIMMEATSNVTYGFPIMLVLMTAKIVGDVFIEGLYDMHIQLQSVPFLHWEAPVTSHSLTAREVMSTPVTCLRRREKVGVIVDVLSDTASNHNGFPVVEHADDTQPARLQGLILRSQLIVLLKHKVFVERSNLGLVQRRLRLKDFRDAYPRFPPIQSIHVSQDERECTMDLSEFMNPSPYTVPQEASLPRVFKLFRALGLRHLVVVDNRNQVVGLVTRKDLARYRLGKRGLEELSLAQT [CLCN7] | -0.189 | 0.135 | -0.102 | 52.9 | 52.6 | -0.116 |
| MVLLRVLILLLSWAAGMGGQYGNPLNKYIRHYEGLSYNVDSLHQKHQRAKRAVSHEDQFLRLDFHAHGRHFNLRMKRDTSLFSDEFKVETSNKVLDYDTSHIYTGHIYGEEGSFSHGSVIDGRFEGFIQTRGGTFYVEPAERYIKDRTLPFHSVIYHEDDINYPHKYGPQGGCADHSVFERMRKYQMTGVEEVTQIPQEEHAANGPELLRKKRTTSAEKNTCQLYIQTDHLFFKYYGTREAVIAQISSHVKAIDTIYQTTDFSGIRNISFMVKRIRINTTADEKDPTNPFRFPNIGVEKFLELNSEQNHDDYCLAYVFTDRDFDDGVLGLAWVGAPSGSSGGICEKSKLYSDGKKKSLNTGIITVQNYGSHVPPKVSHITFAHEVGHNFGSPHDSGTECTPGESKNLGQKENGNYIMYARATSGDKLNNNKFSLCSIRNISQVLEKKRNNCFVESGQPICGNGMVEQGEECDCGYSDQCKDECCFDANQPEGRKCKLKPGKQCSPSQGPCCTAQCAFKSKSEKCRDDSDCAREGICNGFTALCPASDPKPNFTDCNRHTQVCINGQCAGSICEKYGLEECTCASSDGKDDKELCHVCCMKKMDPSTCASTGSVQWSRHFSGRTITLQPGSPCNDFRGYCDVFMRCRLVDADGPLARLKKAIFSPELYENIAEWIVAHWWAVLLMGIALIMLMAGFIKICSVHTPSSNPKLPPPKPLPGTLKRRRPPQPIQQPQRQRPRESYQMGHMRR [ADAM10] | -0.0721 | 0.749 | 1.37 | 53.3 | 53.9 | -0.0492 |
| MAAQRPLRVLCLAGFRQSERGFREKTGALRKALRGRAELVCLSGPHPVPDPPGPEGARSDFGSCPPEEQPRGWWFSEQEADVFSALEEPAVCRGLEESLGMVAQALNRLGPFDGLLGFSQGAALAALVCALGQAGDPRFPLPRFILLVSGFCPRGIGFKESILQRPLSLPSLHVFGDTDKVIPSQESVQLASQFPGAITLTHSGGHFIPAAAPQRQAYLKFLDQFAE [OVCA2] | 0.171 | -1.18 | -0.0698 | 49.8 | 51.5 | 0.0456 |
